US20160137728A1

Biological target: T1, Thermus thermophilus wild type SlyD polypeptide (Thermus thermophilus)
T1 sequence: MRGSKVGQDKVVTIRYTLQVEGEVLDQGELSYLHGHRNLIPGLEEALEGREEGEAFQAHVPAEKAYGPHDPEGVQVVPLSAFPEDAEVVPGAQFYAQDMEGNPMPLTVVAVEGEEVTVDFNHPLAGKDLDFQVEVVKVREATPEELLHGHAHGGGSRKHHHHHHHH
Experiment: ELISA, clone culture supernatant

B1: MAb<h-IGF-1>M-11.09.15 (antibody, V domains shown)
VH: QVQLQQSGAELVRPGSSVKISCKASGYAFSNLWMNWVKQRPGQGLEWIGQIYPGDGDTNYYGDFKGKATLTADSSSSTAYMQLSRLTSEDSAVYFCARIGYYGMDYWGQGTSVTVSS
VL: DVVLTQTPLSLPVNIGDEASISCKSTKSLLSSDGLTYLDWYLQKPGQSPQVLIYLVSNRFSGVPDRFSGSGSGTDFTLKISRVEAEDLGVYYCFQSNYLPTFGAGTKLELK
reactivity [mE]: 32 mE
